Measured values reported in publication PMC8629256, “Structural and functional studies of D109A human αB-crystallin contributing to the development of cataract and cardiomyopathy diseases” (PLoS ONE, 2021).

Molecular target: the molecule itself
Assay: AUC; sedimentation velocity, 20 °C, 40,000 rpm, 40 mM sodium phosphate, 100 mM NaCl, 1 mM EDTA, 3 mM NaN3, pH 7.0; wild type 1.0 mg/mL, D109A 0.5 mg/mL; c(s) and c(M) by SEDFIT; run after dialysis and again after 24 h at 20 °C; size of the oligomer

Protein	stoichiometry N [subunits]
wild-type human αB-crystallin (natural protein, human αB-crystallin (HSPB5), 175 amino acids, coded by CRYAB; cDNA cloned in pET-28b(+); Polydisperse oligomer; 32 subunits is the number worked out for the majority species in AUC (about 650 kDa); also called heat shock protein β5; HSPB5; source: E. coli BL21 (DE3), purified (DEAE-cellulose anion exchange in urea buffer, dialysed against water); copies: 32) MDIAIHHPWIRRPFFPFHSPSRLFDQFFGEHLLESDLFPTSTSLSPFYLRPPSFLRAPSWFDTGLSEMRLEKDRFSVNLDVKHFSPEELKVKVLGDVIEVHGKHEERQDEHGFISREFHRKYRIPADVDPLTITSSLSSDGVLTVNGPRKQVSGPERTIPITREEKPAVTAAPKK	32
D109A mutant human αB-crystallin (natural protein, human αB-crystallin (HSPB5) with the patient mutation D109A (cDNA 326 A>C), made by site-directed mutagenesis of the wild-type cDNA in pET-28b(+); Polydisperse oligomer; 53 subunits is the number worked out for the majority species in AUC (about 1,060 kDa); larger ensembles of 1500-3000 kDa are also seen; The mutation is reported in patients with myofibrillar myopathy; No tag is named; see the …) MDIAIHHPWIRRPFFPFHSPSRLFDQFFGEHLLESDLFPTSTSLSPFYLRPPSFLRAPSWFDTGLSEMRLEKDRFSVNLDVKHFSPEELKVKVLGDVIEVHGKHEERQAEHGFISREFHRKYRIPADVDPLTITSSLSSDGVLTVNGPRKQVSGPERTIPITREEKPAVTAAPKK	53
